The values that follow come from article PMC3326337.

For this data set, the system named is Streptavidin. The experiment in a line: DRaCALA. As to conditions: 5'-biotin on one strand.

Regarding 3x ICAP PCR probe with biotin, the Kd amounted to 0.4 nM.

By Kd is commonly meant the free concentration of one partner at which half of the binding sites on the other are occupied at equilibrium, for simple one-to-one binding. High values mean weaker binding, low ones tighter binding.
